Source: PMC3295803

Assays:
Assay in all cases: pressure-induced dissociation followed by light scattering; recombinant oligomers 0.2 mg/ml in 25 mM Tris pH 7.5, 25°C, 1 to 3000 bar in steps of 270 bar and back; without or with 2-mercaptoethanol
[1] = target: AgB recombinant subunit rAgB8/1 (Echinococcus granulosus)
[2] = target: AgB recombinant subunit rAgB8/2 (Echinococcus granulosus)
[3] = target: AgB recombinant subunit rAgB8/3 (Echinococcus granulosus)

AgB recombinant subunit rAgB8/1
decrease of the light scattering signal after compression [1]: 60%

AgB recombinant subunit rAgB8/2
decrease of the light scattering signal after compression [2]: 30%

AgB recombinant subunit rAgB8/3
decrease of the light scattering signal after compression [3]: 30%
